These results are taken from article PMC12137362, “OsAPSE modulates non-covalent interactions between arabinogalactan protein O-glycans and pectin in rice cell walls” (Frontiers in Plant Science, 2025).

For this data set, the system named is O=[N+]([O-])c1ccc(O[C@H]2O[C@H](CO)[C@H](O)[C@H](O)[C@H]2O)cc1. Kind of data set: cells, lysate or membranes. Conditions: Tris-HCl pH 8, 25 °C, unpurified cell-free expression reaction, final substrate 0.5-50 mM.

Consider “GH27_OsAPSE (GH27 domain of OsAPSE) (Oryza sativa Japonica Group)”, for which the Km amounted to 670 µM.

What is called Km is the substrate concentration at which the rate is half of its maximum.
